In patent publication US20060259987A1 (UNIVERSITY OF UTAH RESEARCH FOUNDATION, published 2006):
Residue numbers refer to the chain shown, from its start. Numbers in names are those of the source. One block for each binder: values may come before it.

Tests used:
[1] = molecular target: T1, thrombin (human, UniProt P00734 328-622); assay: Kapp IIa/hep relative to plasma.at3
[2] = molecular target: T2, factor Xa (human, UniProt P00742 41-179; P00742 235-488, limits assumed); assay: Kapp fXa/hep relative to plasma.at3
T2 construct: also called fXa; human factor Xa
T2 sequence (P00742 41-179 limits assumed, chain 1 of 2): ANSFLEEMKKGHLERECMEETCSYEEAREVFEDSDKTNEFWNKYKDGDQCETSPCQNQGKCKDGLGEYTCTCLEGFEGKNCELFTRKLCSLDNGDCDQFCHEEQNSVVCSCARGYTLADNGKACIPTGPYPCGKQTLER
T2 sequence (P00742 235-488 limits assumed, chain 2 of 2): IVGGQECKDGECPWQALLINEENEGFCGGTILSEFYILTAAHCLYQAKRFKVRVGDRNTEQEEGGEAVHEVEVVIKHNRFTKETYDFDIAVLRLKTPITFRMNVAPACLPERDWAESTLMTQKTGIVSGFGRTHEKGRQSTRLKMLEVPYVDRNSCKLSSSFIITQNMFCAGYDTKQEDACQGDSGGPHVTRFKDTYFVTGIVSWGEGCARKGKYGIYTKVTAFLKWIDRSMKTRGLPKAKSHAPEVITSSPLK

[3] = molecular target: T2, factor Xa; assay: Kapp fXa/prog relative to plasma.at3
[4] = molecular target: T2, factor Xa; assay: factor Xa prog: pseudo-first-order loss of chromogenic activity, no heparin, 25 C
Experimental: (§1) Polybrene was added with the chromogenic substrate to quench the heparin dependent reaction. […] This was plotted against the heparin concentration to calculate the second-order rate constant for the inhibition by the heparin-ATIII complex, (Kₕₑₚ) from the equation Kobs=Kₕₑₚ[H]ₒ([AT]ₒ/[AT]ₒ+Kd)+Kuncat[AT]ₒ

[5] = molecular target: T1, thrombin; assay: Kapp IIa/prog relative to plasma.at3
[6] = molecular target: T1, thrombin; assay: thrombin prog: pseudo-first-order loss of chromogenic activity, no heparin, 25 C
Experimental: as §1

[7] = molecular target: T2, factor Xa; assay: cell-based or functional assay
[8] = molecular target: T1, thrombin; assay: cell-based or functional assay
[9] = molecular target: T3, human neutrophil elastase (human, UniProt P08246 30-247, limits assumed); assay: cell-based or functional assay
T3 sequence (looked up): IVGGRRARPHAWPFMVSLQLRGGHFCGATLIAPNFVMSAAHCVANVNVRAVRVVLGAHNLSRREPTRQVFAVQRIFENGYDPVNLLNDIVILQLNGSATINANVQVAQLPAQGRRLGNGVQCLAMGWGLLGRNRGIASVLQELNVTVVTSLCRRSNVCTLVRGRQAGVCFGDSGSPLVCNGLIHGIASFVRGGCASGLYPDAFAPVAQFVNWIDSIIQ

[10] = molecular target: T4, human factor Xa (human, UniProt P00742 41-179; P00742 235-488, limits assumed); assay: residual enzyme activity against time, pseudo-first-order, progressive (no heparin)
T4 construct: the active enzyme is a two-chain form of it; also called fXa
T4 sequence (P00742 41-179 limits assumed, chain 1 of 2): as the sequence (P00742 41-179 limits assumed, chain 1 of 2) above
T4 sequence (P00742 235-488 limits assumed, chain 2 of 2): as the sequence (P00742 235-488 limits assumed, chain 2 of 2) above

[11] = molecular target: T5, human thrombin (human, UniProt P00734 328-622); assay: as above
[12] = molecular target: T4, human factor Xa; assay: residual enzyme activity against time, pseudo-first-order, with heparin
Experimental: Polybrene was added with the chromogenic substrate to quench the heparin dependent reaction. The observed pseudo-first-order rate constants were calculated for each heparin (1 nM-5 nM) concentration from the slope of the log of residual proteinase activity vs. time. This was plotted against the heparin concentration to calculate the second-order rate constant for the inhibition by the heparin-ATIII complex, (Kₕₑₚ) from the equation Kobs=Kₕₑₚ[H]ₒ([AT]ₒ/[AT]ₒ+Kd)+Kuncat[AT]ₒ

[13] = molecular target: T5, human thrombin; assay: thrombin inhibition rate in the presence of heparin (HAH)
[14] = molecular target: T5, human thrombin; assay: thrombin inhibition rate in the absence of heparin
[15] = molecular target: T3, human neutrophil elastase; assay: cell-based or functional assay; remark: listed apart in the source
[16] = molecular target: T5, human thrombin; assay: cell-based or functional assay
[17] = molecular target: T4, human factor Xa; assay: cell-based or functional assay
[18] = molecular target: T6, human neutrophil cathepsin G (human, UniProt P08311 21-244); assay: cell-based or functional assay
T6 sequence (looked up): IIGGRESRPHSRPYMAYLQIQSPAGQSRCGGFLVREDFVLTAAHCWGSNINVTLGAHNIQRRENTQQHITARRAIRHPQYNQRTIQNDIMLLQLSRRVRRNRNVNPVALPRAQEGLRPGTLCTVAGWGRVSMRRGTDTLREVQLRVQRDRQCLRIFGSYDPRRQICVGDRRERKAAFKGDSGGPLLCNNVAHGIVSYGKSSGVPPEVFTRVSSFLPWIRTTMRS

[19] = molecular target: T7, factor Xa (human, UniProt P00742 41-179; P00742 235-488, limits assumed); assay: heparin cofactor assay, HCA expt #4; ATIII titrated on 10 nM fXa + 50 ug/ml UFH, chromogenic readout
T7 construct: Active factor Xa has a light and a heavy chain; also called fXa
Experimental: (§2) After 3 minutes, the reactions were quenched with polybrene and chromogenic substrate S2238 (thrombin) or S2765 (fXa), and the initial rate of chromophore production (405 nm) recorded to obtain a measurement residual, uninhibited thrombin or factor Xa. IC50s were determined from plots of ATIII concentration vs. percent residual target enzyme activity.
T7 sequence (P00742 41-179 limits assumed, form in doubt, chain 1 of 2): as the sequence (P00742 41-179 limits assumed, chain 1 of 2) above
T7 sequence (P00742 235-488 limits assumed, form in doubt, chain 2 of 2): as the sequence (P00742 235-488 limits assumed, chain 2 of 2) above

[20] = molecular target: thrombin (human, UniProt P00734 328-622); assay: heparin cofactor assay, HCA expt #4; ATIII titrated on 10 nM thrombin + 50 ug/ml UFH, chromogenic readout
Experimental: as §2

B2: LEAI.472 (other)
chain: SPVDICTAKPRDIPMNPMCIYRSPEKKATEDEGSEQKIPEATNRRVWELSKANSRFATTFYQHLADSKNDNDNIFLSPLSISTAFAMTKLGACNDTLQQLMEVFKFDTISEKTSDQIHFFFAKLNCRLYRKANKASKLVSANRLFGDKSLTFNETYQDISELVYGAKLQPLDFKENAEQSRAAINKWVSNKTEGRITDVIPSEAINELTVLVLVNTIYFKGLWKSKFSPENTRKELFYKADGESCSASMMYQEGKFRYRRVAEGTQVLELPFKGDDITMVLILPKPEKSLAKVEKELTPEVLQEWLDELEEMMLVVHMPRFRIEDGFSLKEQLQDMGLVDLFSPEKSKLPGIVAEGRDDLYVSDAFHKAFLEVNEEGSEAAASTALEANGRSLNPNRVTFKANRPFLVFIREVPLNTIIFMGRVANPCVK
Kapp as a percentage of the plasma ATIII value [1]: 3%
Kapp as a percentage of the plasma ATIII value [2]: 52%
Kapp as a percentage of the plasma ATIII value [3]: 86%
kapp (apparent second-order inhibition rate constant) [4]: 1800 M⁻¹ s⁻¹
Kapp as a percentage of the plasma ATIII value [5]: 4%
kapp (apparent second-order inhibition rate constant) [6]: 278 M⁻¹ s⁻¹
IC50 fXa/UFH; HCA #3 [7]: 15 nM
IC50 fXa/UFH; HCA #4 [7]: 38 nM
rsd. Xa catG; CA #15; stg1 conc 200 [7]: 0%
rsd. Xa hne; CA #15; stg1 conc 200 [7]: 1%
rsd. Xa no add; CA #15; stg1 conc 200 [7]: 0%
IC50 IIa/UFH; HCA #3 [8]: 110 nM
IC50 IIa/UFH; HCA #4 [8]: 200 nM
rsd. IIa catG; CA #15; stg1 conc 200 [8]: 1%
rsd. IIa hne; CA #15; stg1 conc 200 [8]: 21%
rsd. IIa no add; CA #15; stg1 conc 200 [8]: 0%

B3: LEAI.472 (other)
chain: B2 chain
notes: Recombinant human ATIII variant made in Drosophila S2 cells on the S137A background
halflife, min (HNE/hep) [9]: 30.1 min
kapp (apparent second-order inhibition rate constant) [10]: 1800 M⁻¹ s⁻¹
kapp (apparent second-order inhibition rate constant) [11]: 278 M⁻¹ s⁻¹
kapp (apparent second-order inhibition rate constant) [12]: 298000 M⁻¹ s⁻¹

B5: 7EVEA.455 (other)
chain: B2 chain with A385E, L386V, A388V, N389A
modifications: N-linked glycans added by Drosophila S2 cells; not carried by the letters
notes: Made in Drosophila S2 cells (DES) on the S137A background; N-terminus printed as SPVDI---
IC50 [19]: 110 nM
IC50 [20]: > 1000 nM

B6: 7EVEA.459 (other)
chain: B2 chain with A385E, L386V, A388I, N389A, G390P
notes: as for B5
IC50 [19]: 75 nM
IC50 [20]: > 1000 nM

B7: 13C (other)
chain: B2 chain with A385E, A388G, N389A
notes: N-terminus printed as SPVDI---; text (ELEG) and primer codon GAG give E
IC50 [19]: 33 nM
IC50 [20]: > 1000 nM

B9: 13C.438 (other)
chain: B2 chain with A385E, A388N, N389A
modifications: N-linked glycans added by Drosophila S2 cells; not carried by the letters
notes: as for B5
IC50 [19]: 22 nM
IC50 [20]: > 1000 nM

B11: 7EVEA.458 (other)
chain: B2 chain with A385E, L386V, N389A, G390P
modifications: N-linked glycans added by Drosophila S2 cells; not carried by the letters
notes: as for B5
IC50 [19]: 250 nM
IC50 [20]: > 1000 nM

Now from value to binder:

Kapp as a percentage of the plasma ATIII value [1]: 159%
Kapp as a percentage of the plasma ATIII value [2]: 192%
Kapp as a percentage of the plasma ATIII value [3]: 457%
kapp (apparent second-order inhibition rate constant) [4]: 9550 M⁻¹ s⁻¹
Kapp as a percentage of the plasma ATIII value [5]: 75%
kapp (apparent second-order inhibition rate constant) [6]: 5280 M⁻¹ s⁻¹
B1: leai(bv) (other, human, UniProt P01008 33-464, looked up)
chain: HGSPVDICTAKPRDIPMNPMCIYRSPEKKATEDEGSEQKIPEATNRRVWELSKANSRFATTFYQHLADSKNDNDNIFLSPLSISTAFAMTKLGACNDTLQQLMEVFKFDTISEKTSDQIHFFFAKLNCRLYRKAAKSSKLVSANRLFGDKSLTFNETYQDISELVYGAKLQPLDFKENAEQSRAAINKWVSNKTEGRITDVIPSEAINELTVLVLVNTIYFKGLWKSKFSPENTRKELFYKADGESCSASMMYQEGKFRYRRVAEGTQVLELPFKGDDITMVLILPKPEKSLAKVEKELTPEVLQEWLDELEEMMLVVHMPRFRIEDGFSLKEQLQDMGLVDLFSPEKSKLPGIVAEGRDDLYVSDAFHKAFLEVNEEGSEAAASTALEAIGRSLNPNRVTFKANRPFLVFIREVPLNTIIFMGRVANPCVK
notes: mature; also called LEAI (parent)

halflife, min (HNE/hep) [9]: 38.4 min
kapp (apparent second-order inhibition rate constant) [10]: 10700 M⁻¹ s⁻¹
Kapp, thrombin HAH [13]: 2e+06 M⁻¹ s⁻¹
kapp (apparent second-order inhibition rate constant) [11]: 2680 M⁻¹ s⁻¹
kapp (apparent second-order inhibition rate constant) [12]: 1.25e+06 M⁻¹ s⁻¹
Kapp, thrombin progressive [14]: 2700 M⁻¹ s⁻¹
rsd IIa, HNE (CA #51, stg 1 conc 200) [15]: 2%
rsd IIa, HNE (CA #52, stg 1 conc 200) [15]: 3%
rsd Xa, HNE (CA #51, stg 1 conc 200) [15]: -3%
rsd Xa, HNE (CA #52, stg 1 conc 200) [15]: 3%
IC50 IIa/UFH (HCA #5) [16]: 65 nM
IC50 IIa/UFH (HCA #6) [16]: 55 nM
IC50 IIa/UFH; HCA #2 [16]: 65 nM
IC50 IIa/UFH; HCA #3 [16]: 47 nM
IC50 IIa/UFH; HCA #4 [16]: 50 nM
rsd IIa, no add (CA #51, stg 1 conc 200) [16]: 2%
rsd IIa, no add (CA #52, stg 1 conc 200) [16]: 4%
IC50 fXa/UFH (HCA #5) [17]: 23 nM
IC50 fXa/UFH (HCA #6) [17]: 33 nM
IC50 fXa/UFH; HCA #2 [17]: 20 nM
IC50 fXa/UFH; HCA #3 [17]: 16 nM
IC50 fXa/UFH; HCA #4 [17]: 13 nM
rsd Xa, no add (CA #51, stg 1 conc 200) [17]: -1%
rsd Xa, no add (CA #52, stg 1 conc 200) [17]: 2%
rsd IIa, catG (CA #51, stg 1 conc 200) [18]: 2%
rsd IIa, catG (CA #52, stg 1 conc 200) [18]: 3%
rsd Xa, catG (CA #51, stg 1 conc 200) [18]: -2%
rsd Xa, catG (CA #52, stg 1 conc 200) [18]: 1%
B4: LEAI.474 (other)
chain: B2 chain with N389Q
notes: Recombinant human ATIII variant made in Drosophila S2 cells on the S137A background; also called DES.LEAI.474; LEAQ parent

halflife, min (HNE/hep) [9]: 25.3 min
kapp (apparent second-order inhibition rate constant) [10]: 5360 M⁻¹ s⁻¹
kapp (apparent second-order inhibition rate constant) [11]: 2920 M⁻¹ s⁻¹
kapp (apparent second-order inhibition rate constant) [12]: 831000 M⁻¹ s⁻¹
B8: LEAI.482 (other)
chain: B2 chain with N389H
notes: as for B3

halflife, min (HNE/hep) [9]: 19.9 min
kapp (apparent second-order inhibition rate constant) [10]: 24100 M⁻¹ s⁻¹
kapp (apparent second-order inhibition rate constant) [11]: 7310 M⁻¹ s⁻¹
kapp (apparent second-order inhibition rate constant) [12]: 489000 M⁻¹ s⁻¹
B10: LEAI.480 (other)
chain: B2 chain with N389Y
notes: as for B3
